Experiments:
[1] = biological target: the molecule itself; assay: negative-stain EM reconstruction
[2] = biological target: amino-terminal poly-histidine-tagged Cas4 (Bacillus halodurans type I-C), co-expressed with untagged Cas1 (Bacillus halodurans); assay: negative-stain EM reconstruction

stoichiometry N (Cas1 per complex) [2]: 4
stoichiometry N (Cas4 per complex) [2]: 2
B1: untagged Cas1 (Bacillus halodurans type I-C), co-expressed with His6-Cas4 (natural protein, UniProt Q9KFX9 1-343, looked up)
chain: MKKLLNTLYVTQPDTYLSLDGDNVVLLKEQEKLGRLPLHNLEAIVGFGYTGASPALMGYCAERNISITFLTKNGRFLARVVGESRGNVVLRKTQYRISENDQESTKIARNFITGKVYNSKWMLERMTREHPLRVNVEQFKATSQLLSVMMQEIRNCDSLESLRGWEGQAAINYNKVFDQMILQQKEEFAFHGRSRRPPKDNVNAMLSFAYTLLANDVAAALETVGLDAYVGFMHQDRPGRASLALDLMEELRGLYADRFVLSLINRKEMTADGFYKKENGAVLMTDEARKTFLKAWQTKKQEKITHPYLGEKMSWGLVPYVQALLLARFLRGDLDEYPPFLWK
binding result [1]: binds

Reference: publication PMC5889325 (Molecular cell, 2018)
